Source: patent US20130217616

B1: recombinant human MBL-Associated Serine Protease-2 (rMASP-2) (protein)
chain: TPLGPKWPEPVFGRLASPGFPGEYANDQERRWTLTAPPGYRLRLYFTHFDLELSHLCEYDFVKLSSGAKVLATLCGQESTDTERAPGKDTFYSLGSSLDITFRSDYSNEKPFTGFEAFYAAEDIDECQVAPGEAPTCDHHCHNHLGGFYCSCRAGYVLHRNKRTCSALCSGQVFTQRSGELSSPEYPRPYPKLSSCTYSISLEEGFSVILDFVESFDVETHPETLCPYDFLKIQTDREEHGPFCGKTLPHRIETKSNTVTITFVTDESGDHTGWKIHYTSTAQPCPYPMAPPNGHVSPVQAKYILKDSFSIFCETGYELLQGHLPLKSFTAVCQKDGSWDRPMPACSIVDCGPPDDLPSGRVEYITGPGVTTYKAVIQYSCEETFYTMKVNDGKYVCEADGFWTSSKGEKSLPVCEPVCGLSARTTGGRIYGGQKAKPGDFPWQVLILGGTTAAGALLYDNWVLTAAHAVYEQKHDASALDIRMGTLKRLSPHYTQAWSEAVFIHEGYTHDAGFDNDIALIKLNNKVVINSNITPICLPRKEAESFMRTDDIGTASGWGLTQRGFLARNLMYVDIPIVDHQKCTAAYEKPPYPRGSVTANMLCAGLESGGKDSCRGDSGGALVFLDSETERWFVGGIVSWGSMNCGEAGQYGVYTKVINYIPWIENIISDF
B2: recombinant human MBL-Associated Serine Protease-1 (rMASP-1) (protein)
chain: HTVELNNMFGQIQSPGYPDSYPSDSEVTWNITVPDGFRIKLYFMHFNLESSYLCEYDYVKVETEDQVLATFCGRETTDTEQTPGQEVVLSPGSFMSITFRSDFSNEERFTGFDAHYMAVDVDECKEREDEELSCDHYCHNYIGGYYCSCRFGYILHTDNRTCRVECSDNLFTQRTGVITSPDFPNPYPKSSECLYTIELEEGFMVNLQFEDIFDIEDHPEVPCPYDYIKIKVGPKVLGPFCGEKAPEPISTQSHSVLILFHSDNSGENRGWRLSYRAAGNECPELQPPVHGKIEPSQAKYFFKDQVLVSCDTGYKVLKDNVEMDTFQIECLKDGTWSNKIPTCKIVDCRAPGELEHGLITFSTRNNLTTYKSEIKYSCQEPYYKMLNNNTGIYTCSAQGVWMNKVLGRSLPTCLPVCGLPKFSRKLMARIFNGRPAQKGTTPWIAMLSHLNGQPFCGGSLLGSSWIVTAAHCLHQSLDPEDPTLRDSDLLSPSDFKIILGKHWRLRSDENEQHLGVKHTTLHPQYDPNTFENDVALVELLESPVLNAFVMPICLPEGPQQEGAMVIVSGWGKQFLQRFPETLMEIEIPIVDHSTCQKAYAPLKKKVTRDMICAGEKEGGKDACAGDSGGPMVTLNRERGQWYLVGTVSWGDDCGKKDRYGVYSYIHHNKDWIQRVTGVRN
B3: recombinant human MBL-Associated Serine Protease-3 (rMASP-3) (protein)
chain: HTVELNNMFGQIQSPGYPDSYPSDSEVTWNITVPDGFRIKLYFMHFNLESSYLCEYDYVKVETEDQVLATFCGRETTDTEQTPGQEVVLSPGSFMSITFRSDFSNEERFTGFDAHYMAVDVDECKEREDEELSCDHYCHNYIGGYYCSCRFGYILHTDNRTCRVECSDNLFTQRTGVITSPDFPNPYPKSSECLYTIELEEGFMVNLQFEDIFDIEDHPEVPCPYDYIKIKVGPKVLGPFCGEKAPEPISTQSHSVLILFHSDNSGENRGWRLSYRAAGNECPELQPPVHGKIEPSQAKYFFKDQVLVSCDTGYKVLKDNVEMDTFQIECLKDGTWSNKIPTCKIVDCRAPGELEHGLITFSTRNNLTTYKSEIKYSCQEPYYKMLNNNTGIYTCSAQGVWMNKVLGRSLPTCLPECGQPSRSLPSLVKRIIGGRNAEPGLFPWQALIVVEDTSRVPNDKWFGSGALLSASWILTAAHVLRSQRRDTTVIPVSKEHVTVYLGLHDVRDKSGAVNSSAARVVLHPDFNIQNYNHDIALVQLQEPVPLGPHVMPVCLPRLEPEGPAPHMLGLVAGWGISNPNVTVDEIISSGTRTLSDVLQYVKLPVVPHAECKTSYESRSGNYSVTENMFCAGYYEGGKDTCLGDSGGAFVIFDDLSQRWVVQGLVSWGGPEECGSKQVYGVYTKVSNYVDWVWEQMGLPQSVVEPQVER

Experiments:
[1] = target: recombinant, full-length, non-tagged mannose-binding lectin (rMBL), P11226
Sequence of recombinant, full-length, non-tagged mannose-binding lectin (rMBL), P11226 (P11226 21-248): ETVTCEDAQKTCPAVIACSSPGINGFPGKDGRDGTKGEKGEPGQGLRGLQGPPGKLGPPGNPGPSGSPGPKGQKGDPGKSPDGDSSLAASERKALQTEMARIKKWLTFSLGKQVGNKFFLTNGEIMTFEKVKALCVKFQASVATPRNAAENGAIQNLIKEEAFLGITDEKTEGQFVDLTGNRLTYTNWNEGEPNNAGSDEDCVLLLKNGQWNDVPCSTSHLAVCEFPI

[2] = target: recombinant human Ficolin-3 (rFicolin-3), O75636
Sequence of recombinant human Ficolin-3 (rFicolin-3), O75636 (O75636 24-299): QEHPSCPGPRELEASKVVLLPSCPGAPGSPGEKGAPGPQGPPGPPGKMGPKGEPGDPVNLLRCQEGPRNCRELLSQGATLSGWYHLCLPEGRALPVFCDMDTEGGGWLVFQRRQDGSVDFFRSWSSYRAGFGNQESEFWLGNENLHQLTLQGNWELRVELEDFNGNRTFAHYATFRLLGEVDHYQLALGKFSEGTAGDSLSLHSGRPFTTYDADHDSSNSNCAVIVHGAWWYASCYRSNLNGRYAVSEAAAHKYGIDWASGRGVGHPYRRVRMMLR

| Protein | C4 deposition (mannan/rMBL, MBL deficient serum) [1] | activation of C3 and C4 [1] | C4 deposition (AcBSA/rFicolin-3, Ficolin-3 deficient serum) [2] |
| --- | --- | --- | --- |
| B1 | Application of rMASP-2 resulted in a strong positive dose dependent enhancement of the C4 deposition via both the Ficolin-3 and MBL activation pathways | MASP-2 were able to strongly activate both the C3 and C4 complement proteins | Application of rMASP-2 resulted in a strong positive dose dependent enhancement of the C4 deposition via both the Ficolin-3 and MBL activation pathways |
| B2 | – | MASP-1 were able to activate both the C3 and C4 complement proteins | – |
| B3 | – | MASP-3 were able to inhibit the activation of both the C3 and C4 complement proteins | – |
